Experimental data taken from patent publication US20250339569A1 (3B PHARMACEUTICALS, published 2025).
Blank lines part the entries; values can stand above or below the binder they belong to. Starred links: 1 amine or outer side, 2 acyl side, 3 side chain; linkers in the order of their positions; H or OH if unused. Positions of bridges follow the written chain, without caps; N, C: chain ends. Non-standard residues stand in square brackets, D forms with d. Primed or numbered codes have the meaning given here. No end group written: not given here. *: point of attachment. Af3(Aytr) = 3-amino-L-phenylalanine, ring amine acylated with triazol-1-yl acetic acid bearing a 4-hydroxamic acid group, O=C(Cn1cc(C(=O)NO)nn1)Nc1cccc(C[C@H](N[*:1])C(=O)[*:2])c1; Aph(Hspy) = 4-amino-L-phenylalanine, ring amine acylated with 4-sulfamoyl-1H-pyrrole-2-carboxylic acid, NS(=O)(=O)c1c[nH]c(C(=O)Nc2ccc(C[C@H](N[*:1])C(=O)[*:2])cc2)c1; Aph(CCprAc) = 4-aminophenylalanine acylated on the ring amine with 1-cyano-1-cyclopropanecarboxylic acid, N#CC1(C(=O)Nc2ccc(C[C@H](N[*:1])C(=O)[*:2])cc2)CC1; Aph(MSAc) = 4-aminophenylalanine acylated on the ring amine with 2-methanesulfonylacetic acid, CS(=O)(=O)CC(=O)Nc1ccc(C[C@H](N[*:1])C(=O)[*:2])cc1; Aph(SaPr)″ = 4-amino-L-phenylalanine, ring amine acylated with 3-sulfamoylpropanoic acid, NS(=O)(=O)CCC(=O)Nc1ccc(C[C@H](N[*:1])C(=O)[*:2])cc1; Aph(SaPr) = 4-amino-L-phenylalanine, ring amine acylated by 3-sulfamoylpropanoic acid, NS(=O)(=O)CCC(=O)Nc1ccc(C[C@H](N[*:1])C(=O)[*:2])cc1; Aph(Iva) = 4-aminophenylalanine acylated on the ring amine with isovaleric acid, CC(C)CC(=O)Nc1ccc(C[C@H](N[*:1])C(=O)[*:2])cc1; Aph(FAc) = 4-aminophenylalanine acylated on the ring amine with fluoroacetic acid, O=C(CF)Nc1ccc(C[C@H](N[*:1])C(=O)[*:2])cc1; Aph(Prp) = 4-aminophenylalanine acylated on the ring amine with propionic acid, CCC(=O)Nc1ccc(C[C@H](N[*:1])C(=O)[*:2])cc1; Af3(DkpAc) = 3-amino-L-phenylalanine acylated on the ring amine with 2-(3,6-dioxopiperazin-2-yl)acetic acid; Af3(Cshx) = 3-amino-L-phenylalanine, ring amine acylated with 4-sulfamoylcyclohexane-1-carboxylic acid; DOTA(Lu) = O=C1CN2CCN3CCN(CC(=O)*)CCN(CC2)CC(=O)[O][Lu]([O]1)[O]C(=O)C3; Phe(3-NHCO(CH2)3SO2NH2) = N[C@@H](Cc1cccc(NC(=O)CCCS(N)(=O)=O)c1)C(=O)O; APAc″ = 2-(4-(amino)piperidin-1-yl)acetic acid, NC1CCN(CC(=O)*)CC1; DOTA = O=C(O)CN1CCN(CC(=O)O)CCN(CC(=O)*)CCN(CC(=O)O)CC1; PPAc = 4-carboxymethyl piperazine linker; mXylylene = c1cc(C[*:1])cc(C[*:2])c1; Af3(Aype) = not defined here; Af3(Hytr) = not defined here; Aph(Aybu) = not defined here; N6iQui = not defined here; PPAc″ = not defined here; Dap = NC[C@H](N)C(=O)O

Legend:
[1] = biological target: human carbonic anhydrase 9 (CAIX) (human, UniProt Q16790 38-459); experiment: FACS competition on HT-29 cells, competitor tracer 3BP-4149; category C = pIC50 6.1-7.0
Protocol: (§1) CAIX-expressing human HT-29 colorectal cancer cells (DSMZ, RRID: CVCL_0320) were cultured in McCoys's 5A modified medium (Biochrom, #F1015) including 10% fetal calf serum (FCS), 2 mM L-glutamine, 100 U/ml penicillin and 100 μg/mL streptomycin. Cells were detached with Accutase (Biolegend, #423201) and washed in FACS buffer (PBS including 1% FCS). Cells were diluted in FACS buffer to a final concentration of 500.000 cells per ml. 200 μL of the cell suspension were transferred to a u-shaped non-binding 96-well plate (Greiner) and cells were washed in ice-cold FACS buffer.
(§2) When biotinylated compounds were used an additional incubation step with 1 μg/mL APC-Streptavidin (Miltenyi; #130-106-791) in 50 μL FACS buffer for 30 minutes on ice was performed.
(§3) Cells were washed twice with ice-cold FACS buffer and analyzed in an Attune NxT flow cytometer (Thermo Fisher). Median fluorescence intensities (MFI) of the APC/Cy5-channel were calculated by Attune NxT software.

[2] = biological target: T1, human carbonic anhydrase IV (CAIV), biotinylated (human, UniProt P22748 19-283, limits assumed, biotinylated); experiment: SPR, biotinylated CAIV captured (Biotin CAPture)
T1 construct: Bought (SinoBiological, Cat # printed 10472-1H081H); also called hCAIV-bio
Excerpt: (§4) For each test compound, SPR raw data in the form of resonance units (RU) were plotted as sensorgrams using the Biacore™ T200 control software. The signal from the blank sensorgram was subtracted from that of the test compound sensorgram (blank corrected). The blank corrected sensorgram was corrected for baseline drift by subtracting the sensorgram of a SCK run without the test compound (running buffer only). […] Raw data and fit results were imported as text files in IDBS. The pKD value (negative decadic logarithm of dissociation constant) was calculated in the IDBS excel template.

[3] = biological target: T2, human carbonic anhydrase XII (CAXII), biotinylated (human, UniProt O43570 25-301, biotinylated); experiment: SPR, biotinylated CAXII captured (Biotin CAPture)
T2 construct: Bought (SinoBiological Cat #10617-H08H); also called hCAXII-bio
Excerpt: as §4

[4] = biological target: Fc-fusion protein of human carbonic anhydrase IX (human, UniProt Q16790 38-414); experiment: SPR, captured hCAIX-Fc; t1/2 category A: >15.0 min
[5] = biological target: T3, human carbonic anhydrase XIV (CAXIV), biotinylated (human, UniProt Q9ULX7 16-290, biotinylated); experiment: SPR, biotinylated CAXIV captured (Biotin CAPture)
T3 construct: Bought (SinoBiological Cat #10458-H08H); also called hCAXIV-bio
Excerpt: as §4

[6] = biological target: human carbonic anhydrase IX (CAIX) (human, UniProt Q16790 38-459); experiment: FACS competition, HT-29 cells, tracer 3BP-2776; pIC50 category C: 6.1-7.0
Protocol: as §1, §2, §3

[7] = biological target: T4, human carbonic anhydrase 4 (CAIV), biotinylated (Sino Biological Cat #10472-H08H) (human, UniProt P22748 19-283, biotinylated (sites not given)); experiment: SPR (Biacore T200), biotinylated CAIV captured with Biotin CAPture Kit; limit of the category in which no binding is told
T4 construct: Bought protein, biotinylated and captured with the Biotin CAPture Kit; also called hCAIV-bio; carbonic anhydrase IV

[8] = biological target: T5, human carbonic anhydrase 14 (CAXIV), biotinylated (Sino Biological Cat #10458-H08H) (human, UniProt Q9ULX7 16-290, biotinylated (sites not given)); experiment: SPR (Biacore T200), biotinylated CAXIV captured with Biotin CAPture Kit; limit of the category in which no binding is told
T5 construct: Bought protein, biotinylated and captured with the Biotin CAPture Kit; also called hCAXIV-bio; carbonic anhydrase XIV

[9] = biological target: T6, human carbonic anhydrase 12 (CAXII), biotinylated (Sino Biological Cat #10617-H08H) (human, UniProt O43570 25-301, biotinylated (sites not given)); experiment: SPR (Biacore T200), biotinylated CAXII captured with Biotin CAPture Kit; limit of the category in which no binding is told
T6 construct: Bought protein, biotinylated and captured with the Biotin CAPture Kit; also called hCAXII-bio; carbonic anhydrase XII
T6 sequence (O43570 25-301 limits assumed): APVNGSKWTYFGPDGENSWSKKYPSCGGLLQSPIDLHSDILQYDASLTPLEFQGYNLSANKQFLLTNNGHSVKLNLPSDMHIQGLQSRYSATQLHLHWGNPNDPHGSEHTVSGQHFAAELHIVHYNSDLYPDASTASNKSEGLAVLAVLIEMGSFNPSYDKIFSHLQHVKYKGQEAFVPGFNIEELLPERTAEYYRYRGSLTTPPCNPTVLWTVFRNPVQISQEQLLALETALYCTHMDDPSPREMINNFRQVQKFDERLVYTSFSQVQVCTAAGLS

T4 sequence (P22748 19-283 limits assumed): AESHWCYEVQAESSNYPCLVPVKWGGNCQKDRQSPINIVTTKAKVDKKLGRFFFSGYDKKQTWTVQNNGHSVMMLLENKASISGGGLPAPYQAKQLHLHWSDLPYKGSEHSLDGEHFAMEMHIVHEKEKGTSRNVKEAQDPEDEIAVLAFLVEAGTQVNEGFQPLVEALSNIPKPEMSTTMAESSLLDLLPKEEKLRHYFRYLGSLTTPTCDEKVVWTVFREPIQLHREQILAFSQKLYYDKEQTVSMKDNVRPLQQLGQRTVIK
T1 sequence (P22748 19-283 limits assumed): as above
T5 sequence (Q9ULX7 16-290 limits assumed): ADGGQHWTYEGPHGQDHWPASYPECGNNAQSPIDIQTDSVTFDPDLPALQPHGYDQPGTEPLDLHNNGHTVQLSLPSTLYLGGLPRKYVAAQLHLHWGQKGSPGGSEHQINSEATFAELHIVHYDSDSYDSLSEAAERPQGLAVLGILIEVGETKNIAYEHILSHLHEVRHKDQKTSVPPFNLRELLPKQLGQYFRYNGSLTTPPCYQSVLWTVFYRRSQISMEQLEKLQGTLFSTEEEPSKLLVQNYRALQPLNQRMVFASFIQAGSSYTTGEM
T3 sequence (Q9ULX7 16-290 limits assumed): as above
T2 sequence (O43570 25-301 limits assumed): as the sequence (O43570 25-301 limits assumed) above

pIC50 [1]: 6.1 to 7 pic50
Binder: {DOTA-APAc″}-VYCE[dP]D[Af3(DkpAc)]LTWSC-NH2 (linker 3-12 via mXylylene) [3BP-4288]

pKD [2]: < 6 pkd
pKD [3]: < 6 pkd
t1/2 (half-life of the complex, SPR) [4]: > 15 min
pKD [5]: < 6 pkd
B1: 3BP-4501 (peptide)
peptide: {DOTA}-QCE[dP]D[Aph(SaPr)]LTWSC-NH2
modifications: linker 2-11 via mXylylene
SMILES: CC(C)C[C@@H]1NC(=O)[C@H](Cc2ccc(NC(=O)CCS(N)(=O)=O)cc2)NC(=O)[C@H](CC(=O)O)NC(=O)[C@H]2CCCN2C(=O)[C@H](CCC(=O)O)NC(=O)[C@@H](NC(=O)[C@H](CCC(N)=O)NC(=O)CN2CCN(CC(=O)O)CCN(CC(=O)O)CCN(CC(=O)O)CC2)CSCc2cccc(c2)CSC[C@@H](C(N)=O)NC(=O)[C@H](CO)NC(=O)[C@H](Cc2c[nH]c3ccccc23)NC(=O)[C@H]([C@@H](C)O)NC1=O
notes: also called DPI-4501

pIC50 [6]: 6.1 to 7 pic50
Binder: {DOTA-PPAc}-QCE[dP]D[Af3(Aytr)]LTWSC-NH2 (linker 2-11 via mXylylene) [3BP-4847]

pKD [7]: < 6
pKD [8]: < 6
pKD [9]: < 6
B2: 3BP-4501: DOTA-Gln-[Cys(3MeBn)-Glu-pro-Asp-Aph(SaPr)-Leu-Thr-Trp-Ser-Cys]-NH2 (peptide)
peptide: {DOTA}-QCE[dP]D[Aph(SaPr)]LTWSC-NH2
modifications: linker 2-11 via mXylylene
SMILES: CC(C)C[C@@H]1NC(=O)[C@H](Cc2ccc(NC(=O)CCS(N)(=O)=O)cc2)NC(=O)[C@H](CC(=O)O)NC(=O)[C@H]2CCCN2C(=O)[C@H](CCC(=O)O)NC(=O)[C@@H](NC(=O)[C@H](CCC(N)=O)NC(=O)CN2CCN(CC(=O)O)CCN(CC(=O)O)CCN(CC(=O)O)CC2)CSCc2cccc(c2)CSC[C@@H](C(N)=O)NC(=O)[C@H](CO)NC(=O)[C@H](Cc2c[nH]c3ccccc23)NC(=O)[C@H]([C@@H](C)O)NC1=O
notes: Cyclic peptide with uncomplexed DOTA; also called DPI-4501

pKD [7]: < 6
pKD [8]: < 6
pKD [9]: < 6
Binder: {DOTA(Lu)}-QCE[dP]D[Aph(SaPr)]LTWSC-NH2 (linker 2-11 via mXylylene; also: DOTA complexing non-radioactive lutetium, also called natLu-3BP-4501) [3BP-4581: LuDOTA-Gln-[Cys(3MeBn)-Glu-pro-Asp-Aph(SaPr)-Leu-Thr-Trp-Ser-Cys]-NH2]

pKD [2]: < 6 pkd
pKD [3]: < 6 pkd
t1/2 (half-life of the complex, SPR) [4]: > 15 min
pKD [5]: < 6 pkd
B3: 3BP-4555 (peptide)
peptide: QCE[dP]D[Phe(3-NHCO(CH2)3SO2NH2)]LTWSC-NH2
modifications: linker 2-11 via mXylylene; not fully specified (N-terminus); also: Lu complexed in DOTA
notes: also called natLu-DPI-4452

pIC50 [1]: 6.1 to 7 pic50
Binder: {DOTA-APAc″}-VYCE[dP]E(N6iQui)WLTWSC-NH2 (linker 3-12 via mXylylene; reading uncertain) [3BP-4328]

pIC50 [1]: 6.1 to 7 pic50
Binder: {DOTA-APAc″}-VYCE[dP]D[Aph(Prp)]LTWSC-NH2 (linker 3-12 via mXylylene) [3BP-4347]

pKD [7]: < 6
pKD [8]: < 6
pKD [9]: < 6
B4: 3BP-4555: LuDOTA-PPAc-Gln-[Cys(3MeBn)-Glu-pro-Asp-Af3(Cpsu)-Leu-Thr-Trp-Ser-Cys]-NH2 (peptide)
peptide: QCE[dP]D[Phe(3-NHCO(CH2)3SO2NH2)]LTWSC-NH2
modifications: linker 2-11 via mXylylene; not fully specified (N-terminus); printed as LuDOTA-PPAc-Gln-[Cys(3MeBn)-Glu-pro-Asp-Af3(Cpsu)-Leu-Thr-Trp-Ser-Cys]-NH2; also: lutetium complexed in DOTA
notes: also called natLu-DPI-4452

pIC50 [6]: 6.1 to 7 pic50
Binder: {DOTA-PPAc}-QCE[dP]D[Af3(Aype)]LTWSC-NH2 (linker 2-11 via mXylylene; reading uncertain) [3BP-4886]

pKD [2]: < 6 pkd
pKD [3]: < 6 pkd
t1/2 (half-life of the complex, SPR) [4]: > 15 min
pKD [5]: < 6 pkd
Binder: {DOTA-PPAc″}-QCE[dP]D[Phe(3-NHCO(CH2)3SO2NH2)]LTWSC-NH2 (linker 2-11 via mXylylene; reading uncertain, also called DPI-4452) [3BP-4452]

pIC50 [6]: 6.1 to 7 pic50
Binder: {DOTA-PPAc}-QCE[dP]D[Aph(Aybu)]LTWSC-NH2 (linker 2-11 via mXylylene; reading uncertain) [3BP-4884]

pIC50 [6]: 6.1 to 7 pic50
Binder: {DOTA-PPAc}-QCE[dP]D[Af3(Cshx)]LTWSC-NH2 (linker 2-11 via mXylylene) [3BP-4787]

pIC50 [1]: 6.1 to 7 pic50
Binder: {DOTA-APAc″}-VYCE[dP]D[Aph(MSAc)]LTWSC-NH2 (linker 3-12 via mXylylene) [3BP-4360]

pIC50 [1]: 6.1 to 7 pic50
Binder: {DOTA-APAc″}-VYCE[dP]D[Aph(FAc)]LTWSC-NH2 (linker 3-12 via mXylylene) [3BP-4358]

pKD [2]: < 6 pkd
pKD [3]: < 6 pkd
t1/2 (half-life of the complex, SPR) [4]: > 15 min
pKD [5]: < 6 pkd
Binder: {DOTA}-QCE[dP]D[Aph(SaPr)″]LTWSC-NH2 (linker 2-11 via mXylylene; also: Lu complexed in DOTA, also called natLu-3BP-4501) [3BP-4581]

pIC50 [1]: 6.1 to 7 pic50
Binder: {DOTA-APAc″}-VYCE[dP]D[Aph(Iva)]LTWSC-NH2 (linker 3-12 via mXylylene) [3BP-4348]

pIC50 [1]: 6.1 to 7 pic50
Binder: {DOTA-APAc″}-VYCE[dP]D[Aph(CCprAc)]LTWSC-NH2 (linker 3-12 via mXylylene) [3BP-4357]

pKD [7]: < 6
pKD [8]: < 6
pKD [9]: < 6
B5: 3BP-4503: DOTA-{Glu-[Cys(3MeBn)-Glu-pro-Asp-Af3(Cpsu)-Leu-Thr-Trp-Dap}-Cys]-NH2 (peptide)
peptide: {DOTA}-ECE[dP]D[Phe(3-NHCO(CH2)3SO2NH2)]LTW[Dap]C-NH2
modifications: lactam 1-10; linker 2-11 via mXylylene
notes: Bicyclic peptide with uncomplexed DOTA; also called DPI-4503

pIC50 [6]: 6.1 to 7 pic50
Binder: {DOTA-PPAc}-QCE[dP]D[Aph(Hspy)]LTWSC-NH2 (linker 2-11 via mXylylene) [3BP-4814]

pIC50 [6]: 6.1 to 7 pic50
Binder: {DOTA-PPAc}-QCE[dP]D[Af3(Hytr)]LTWSC-NH2 (linker 2-11 via mXylylene; reading uncertain) [3BP-4882]
